Test [1] deals with AbMtlD H434C_Y469C double-cysteine variant (Acinetobacter baumannii).
In test [2] the target is AbMtlD Y427C_A466C double-cysteine variant (Acinetobacter baumannii).
For test [3], the target named is Acinetobacter baumannii bifunctional mannitol-1-phosphate dehydrogenase/phosphatase (AbMtlD), wild type (Acinetobacter baumannii). The test is described as follows: SEC-MALS. In general terms: In gel filtration, larger molecules generally elute earlier.

“AbMtlD H434C_Y469C double-cysteine variant (from UniProt A0ABX6CFK3 1-715) (enzyme)” registered an F6P reduction activity, kcat/Km for F6P (wild type: 2.388) in test [1] of 149000 M⁻¹ s⁻¹.

“AbMtlD Y427C_A466C double-cysteine variant (from UniProt A0ABX6CFK3 1-715) (enzyme)” had an F6P reduction activity, kcat/Km for F6P (wild type: 2.388) in test [2] of 139000 M⁻¹ s⁻¹.

As usually defined, the stoichiometry N is a count of units in the complex or per binding partner. Regarding “Acinetobacter baumannii bifunctional mannitol-1-phosphate dehydrogenase/phosphatase (AbMtlD), wild type (from UniProt A0ABX6CFK3 1-715) (enzyme)”, the stoichiometry N in test [3] is 2.

For the origin of these results see paper PMC9168451.
